# Measurements as given in the nanobody polyreactivity screen of Harvey et al. (2022).
# Assay: yeast display, Sf9 membrane polyspecificity reagent, FACS + sequencing; frameworks hold sequencing errors
# In short: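 Nanobodies came from a synthetic yeast display library in Saccharomyces cerevisiae BJ5465, induced with galactose for 36–48 hours and stained for 1 hour at 4 °C with 10% biotinylated, detergent-solubilized Sf9 membrane reagent. Cells were enriched on streptavidin microbeads and then FACS-sorted, with low and high (top ~1%) gates set on anti-HA fluorescence for expression and streptavidin fluorescence for reagent binding. Each polyreactivity label reflects the gate a clone came from. Genes were amplified by colony PCR, sequenced by MiSeq 2 × 250 and filtered by CDR length.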
row,Sequence,polyreactivity (PSR sort gate)
1,QVQLVESGGGLVQAGGSLRLSCAASGSIFYRYAMGWYRPAPGKERELVAAISSTGSTYYADSVKGRFTISRDNAKNTVYLQMNSLKPEDTAVYYCAARQGFRSYRRYDYWGQGTQVTVSS,high polyreactivity
2,QVQLVESGGGLVQAGGSLRLSCAASGSIFYRYAMGWYRQAPGKERELVASISSGVSTNYADSVKGRFTISRDNAKNTVYLQMNSLKPEDTAVYYCAAYYRGWSSSYWYPAYNYWGQGTQVTVSS,low polyreactivity
3,QVQLVESGGGLVQAGGSLRLSCAASGSIFYRYAMGWYRQAPGKERELVATITRRGGTTYYADSVKGRFTISRDNAKNTVYLKMNSLKPEDTAVYYCARPYLRASYGAIDYDYWGQGTQVTVSS,high polyreactivity
4,QVQLVESGGGLVQAGGSLRLSCAASGSIFYRYAMGWYRQAPGKERELVAVISTGGSTYYADSVKGRFTISRDNAKNTVYLQMNSLKPEDTAVYYCNVLYYSRYAPYGRYGYWGQGTQVTVSS,high polyreactivity
5,QVQLVESGGGLVQAGGSLRLSCAASGSIFYRYAMGWYSQAPGKERELVAAINNGGGRTYADSVKGRCTISRDNAKNTVYLQMNSLKPEDTAVYYCAARYYRDYRWYTYAYDYWGQGTQVNVSS,high polyreactivity
6,QVQLVESGGGLVQAGGSLRLSCAASGSIFYSNAMGWYRQAPGKEREFVAAISAGGGSTYYADSVKGRFTISRDNAKNPVYLQMNSLKPEDTAVYYCAAQQYKIIYPYDYWGQGTQVTVSS,low polyreactivity
7,QVQLVESGGGLVQAGGSLRLSCAASGSIFYSNAMGWYRQAPGKERELVAAISWSGGSTYYADSVKGRFTISRDYAKNTVYLQMNSLKPEDTAVYYCAASYDIYYYDAASLDDYDYWGQGTQVTVSS,low polyreactivity
8,QVQLVESGGGLVQAGGSLRLSCAASGSIFYSNAMGWYRQAPGKERELVAAITSGGRTYYADSVKGRFTISRDNAKNTVYLQMNSLKPEDTAVFYCAARYYLGSWSDYYYWGQGTQVTVSS,high polyreactivity
9,QVQLVESGGGLVQAGGSLRLSCAASGSIFYSNAMGWYRQAPGKERELVAAITSSGGITRYADSVKGRFTISRDNAKNTVYLQMNSLKPEDTAVYYCAKDIRVYASDYWGQGTQVTVSS,low polyreactivity
10,QVQLVESGGGLVQAGGSLRLSCAASGSIFYSNAMGWYRQAPGKERELVAAITWRGGSTYYADSVKGRFTISRDNAKYTVYLQLNSLKPEDTAVYYCNADGSARTPYYYRWYRYGYWGQGTQVTVSS,high polyreactivity
11,QVQLVESGGGLVQAGGSLRLSCAASGSIFYSNFMGWYRQAPGKERELVARITDAGSTNYADSVKGRFTISRDNAKNSVYLQMNSLKPEDTAVYYCNARLVIYTYDYWGQGTQVTVSS,low polyreactivity
12,QVQLVESGGGLVQAGGSLRLSCAASGSIFYSYAMGWYRQAPGKERELVAAINWSGGSTYYADSVKGRFTISRDNAKNTVYLQMKSLKPEDTAVYYCAADYGWGPIYDYWGQGTQVTVSS,low polyreactivity
13,QVQLVESGGGLVQAGGSLRLSCAASGSIFYSYAMGWYRQAPGKERELVAAISFSGGSTYYADSVKGRFTISRDNAKNTVYLHMNSLKPEDPAVYYCNTLSADTFDYWGQGTQVTVSS,low polyreactivity
14,QVQLVESGGGLVQAGGSLRLSCAASGSIFYSYAMGWYRQAPGKERELVAAISTTGGSTYYADSVKGRFTISRDNAKNTVYLQMNSLKPEDTAVYYCAREQGFRGDWYDYWGQGTQVTVSS,high polyreactivity
15,QVQLVESGGGLVQAGGSLRLSCAASGSIFYSYAMGWYRQAPGKERELVAAITSRTGNTYYADSVKGRFTISRDNAKNTVYLQMNSLKPEDTAVYYCAAKLVNALLHYRIWNHNNYWGQGTQVSVSS,low polyreactivity
16,QVQLVESGGGLVQAGGSLRLSCAASGSIFYSYAMGWYRQAPGKERELVARITKRGGRTYYADSVKGRFTISRDNAKNTVYLQMNSLKPEDTAVYYCAATTGHRTYRYYYWGQGTQVTVSS,high polyreactivity
17,QVQLVESGGGLVQAGGSLRLSCAASGSIFYSYAMGWYRQAPGKERELVASINWSGASTYYADSVKGRFTISRDYAKNTVYLQMNSLKPEDTAVYYCAADWWGYDGRYDYWGQGTQVTVSS,high polyreactivity
18,QVQLVESGGGLVQAGGSLRLSCAASGSIFYSYAMGWYRQAPGKERELVAVITRGGSTNYADSVKGRFTISRDNAKNTVYLQLNSLKPEDTAVYYCNKDRYGKVFRYPPYYRSSPYDYWGQGTQVTVSS,high polyreactivity
19,QVQLVESGGGLVQAGGSLRLSCAASGSIFYSYVMGWYRQAPGKERELVAAISRNGQSTYYADSVKGRFTISRDNAKNTVYLQMNSLKPEDTAVYYCAARSRDKYDYWGQGTQVTVSS,high polyreactivity
20,QVQLVESGGGLVQAGGSLRLSCAASGSIFYTNAMGWYRQATGKERELVAVITASGGSTYYADSVKGRFTISRDNAKNTVYLQMNSLKPEDTAVYYCAADPVFNYDYWGQGTQVTVSS,low polyreactivity
21,QVQLVESGGGLVQAGGSLRLSCAASGSIFYTYAMGWYRPAPGKEREFVAAITSSGGSTYYADSVKGRFTISRDNAKNTVYLQMNSLKPEDTAVYYCAARTPHYGKCYDIFDYWGQGTQVTVSS,low polyreactivity
22,QVQLVESGGGLVQAGGSLRLSCAASGSIFYTYAMGWYRQAPGKERELVAAISGTGTSTYYADSVKGRFTISRDHAKNTVYLQMNSLKPEDTAVYFCATHGGAAWGRYYWYYGYWGQGTQVTVSS,low polyreactivity

row,Sequence,polyreactivity (PSR sort gate)
1,QVQLVESGGGLVQAGGSLRLSCAASGSIFYTYAMGWYRQAPGKERELVAAITYSGGSTYYADSVKGRFTISRDNAKNTVYLQMNSLKPEDTAVYYCAAYVIPGLGAEYGYWGQGTQVTVSS,low polyreactivity
2,QVQLVESGGGLVQAGGSLRLSCAASGSIFYTYVMGWYRQAPGKVREFVAAISKSGGSTYYADSVKGRFTISRDNAKNPVYLQMNSLIPEVTAVYYCAAYPIVSIQRRARGNSWGQGTQVTVSS,high polyreactivity
3,QVQLVESGGGLVQAGGSLRLSCAASGSIFYTYVMGWYRQAPRKERELVAAITRAGNTYYADSVKGRFTISRDNAKKTVYLQMNILKPEDTAVYYCAAGRYKPFTYHFDYWGQGTQVTVSS,high polyreactivity
4,QVQLVESGGGLVQAGGSLRLSCAASGSIFYVKTMGWSRQAPGKEREFLAAINYSGDSTYADSVKGRFTISRDNAKNTVYLQMIRLKPEDTAVYYCNAVPVRYLRGRNGHDYWGQGTQVTVSS,high polyreactivity
5,QVQLVESGGGLVQAGGSLRLSCAASGSIFYVYAMGGYRQAPGKERELVAAITSGSSTNYADSVKGRFTISRDNAKNTVYLQMNSLKPEDTAVYYCAASFRDDFPQRLDYWGQGTQVTVSS,low polyreactivity
6,QVQLVESGGGLVQAGGSLRLSCAASGSIFYVYAMGWYRQAPGKERELVAAISRGGGSTSYADSVKGRFTISRDNAKNTVYLQMNSLKPEDTAVYYCNAYTYYHANHEQGFGYWGQGTQVTVSS,low polyreactivity
7,QVQLVESGGGLVQAGGSLRLSCAASGSIFYVYAMGWYRQAPGKERELVATIDWSGGSTYYADSVKGRFTISRDNAKNTVYLQMNSLKPEDTAVYYCAAPTEQDPFAPVAFYRYDYWGQGTQVTLSS,low polyreactivity
8,QVQLVESGGGLVQAGGSLRLSCAASGSIFYVYAMGWYRQAPGKEREMVAAINTSGGSTFYADSVKGRFTISRDNAKNTVYLQMNSLKPEETAVYYCAAERYRYRSTDTMVYWGQGTQVTVSS,low polyreactivity
9,QVQLVESGGGLVQAGGSLRLSCAASGSIFYVYAMGWYRQAPGNERELVAAINTSGGSTFYADSVKGRFTISRDNAKNTVYLQINSLKPEDTAVYYCAAERYRYRSTDTMGYWGQGTQVTVSS,low polyreactivity
10,QVQLVESGGGLVQAGGSLRLSCAASGSIFYWYAMGWYRQAPGKERELVAAIDISDDTYYADSVKGRFTISRDNAKNTVYLQMNSLKPEDTAFYYCAARNTRWFYEYDWGQGTQVTVSS,high polyreactivity
11,QVQLVESGGGLVQAGGSLRLSCAASGSIFYWYVMVWYRQAPGKERELVATISDSTNYADSVKGRFTISRDNAKNTVYLQMNSLKPEDTAVYYCNARVRGLGKYESWGQGTQVTVSS,low polyreactivity
12,QVQLVESGGGLVQAGGSLRLSCAASGSIFYYAMGWYRQAPGKERELVAAITWRGGRTYYADSVKGRFTISRDNAKNTVYLQMNSLKPEDTAVYDFNAVAPGKYNLWGQGTQVTVSS,high polyreactivity
13,QVQLVESGGGLVQAGGSLRLSCAASGSIFYYGMGWYRQAPGKERELVAAITRGGSTYYADSVKGRFTISRDNAKNTVYLQMNSLKPEDTAVYYCATGPLVYYSARYSSYVYPYDYWGQGTQVTVSS,low polyreactivity
14,QVQLVESGGGLVQAGGSLRLSCAASGSIFYYNAMGLYIQAPGKERELVAAITSSGGSTYYADSVKGRFTISRDNAKNTVYLQMNSLNPEDTAVYYCNNDTLVYGYVQDSEYWGQGTQVTVSS,low polyreactivity
15,QVQLVESGGGLVQAGGSLRLSCAASGSIFYYNAMGWYRQAPGKERELVAAITSGDSTNYADSVKGRFTISRDNAKNPVYLQMNSLKPEDTAVYYCAADYLAALTYYRTYDYWGQGTQVTVSS,low polyreactivity
16,QVQLVESGGGLVQAGGSLRLSCAASGSIFYYNAMGWYRQAPGKESELVAASSRRVGNTYYADSVKGRFTISRDNAKNTVYLQMNSLKPEDTAVYYCNTDRSSRPSYDYWGQGTQVTVSS,high polyreactivity
17,QVQLVESGGGLVQAGGSLRLSCAASGSIFYYNTMGWYRQAPGKERELVAGISWGGGRTYYADSVKGRFTISRDNAKNTVYLQMNSLKPEDTAVYYCNARHRRLPSNGGYDYWGQGTQVTVSS,high polyreactivity
18,QVQLVESGGGLVQAGGSLRLSCAASGSIFYYYAMGWYRPAPGKEWELVAAISSTVSTNYADSVKGRFTISRDNAKNTVYLQMNSLKPEDTAVYYCAAAQRVNHVWYDYWGQGTQVTVSS,low polyreactivity
19,QVQLVESGGGLVQAGGSLRLSCAASGSIFYYYAMGWYRQAPGKEREFVATIRRSGASTYYADSVKGRFTISRDNAKNTVYLQMNSLKPEDTAVYYCNAASARRPIYEAARWSKYDYWGQGTQVTVSS,low polyreactivity
20,QVQLVESGGGLVQAGGSLRLSCAASGSIFYYYAMGWYRQAPGKERELVAAINGGDTYYADSVKGRFTISRDNAKNTVYLQMNSLKPEDTAVYYCAAEGVTVEWDYDYWGQGTQVTVSS,low polyreactivity
21,QVQLVESGGGLVQAGGSLRLSCAASGSIFYYYAMGWYRQAPGKERELVAAISSTGGSTYYADSVKGRFTISRDNAKNTVYLQMNSLKPEDTAVYYCAAYHYGSNVFYFDYWGQGTQVTVSS,low polyreactivity
